Experimental data from the nanobody polyreactivity screen of Harvey et al. (2022).

Assay: yeast display, Sf9 membrane polyspecificity reagent, FACS + sequencing; frameworks hold sequencing errors
Method in brief: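 Using colony PCR, genes from sorted yeast display clones were amplified, then sequenced on MiSeq at 2 × 250 and filtered by CDR length. The clones had been stained with 10% biotinylated, detergent-solubilized Sf9 membrane reagent for 1 hour at 4 °C and sorted by FACS into low and high (top ~1%) gates on anti-HA and streptavidin fluorescence. Polyreactivity labels come from the gate of origin.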

| Sequence | polyreactivity (PSR sort gate) |
| --- | --- |
| QVHLVESGGGLVQAGGSLRLSCAASGSTFYTYVMGWYRQAPGKERELVAAISEDDGNTYYADSVKGRFTISRDNAKNTVYLQMNSLKPEDTAVYYCAADWEDDLAYSAYDYWGQGTQVTVSS | high polyreactivity |
| QVHLVESGGGLVQAGGSLRLSCAASGSTLYTYGMGWYRQAPGKERELVASISWRAARTYYADSVKGRFTISRDNAKNTVYLQMNSLKPEDTAVYYCNADYYIAPYDSWGQGTQVTVSP | low polyreactivity |
| QVHLVESGGGLVQAGGSLRLSCAASGYIFDIYAMGWYRQAPGKERELVAVITRSGGGTYYADSVKGRFTISRDNAKNTVYLQMNSLKPEDTAVYYCAAESYVYGGSDYDYWGQGTQVTVSS | low polyreactivity |
| QVHLVESGGGLVQAGGSLRLSCAASGYIFQYYAMGWSRQAPGKERELVAAITGGGSTKYADSVKGRFTISRDNAKNTVYLHMNSLKPEDTAVYYCAASLWYRISKYDYWGLGTQVTVSS | high polyreactivity |
| QVHLVESGGGLVQAGGSLRLSCAASGYTDYAMGWYRKAPGKERELVATITSGDNTNYADSVKGRFTSSRDNAKNTVYLQMNSLKAEDTAVYYCAAVYGLHYGIDYWGQGTQVNVSS | low polyreactivity |
| QVHLVESGGGLVQAGGSLRLSCAATGRTFIIYTMAWYRQAPGKESEFVAAITRSGGGTYYADSVKGRFTISRDNAKNTVYLQMNSQKPEDTAVYYCAAVRFYDQAYDYWGQGTQVTVSS | low polyreactivity |
| QVHLVESGGGLVQAGGSLRLSCAAYGRSFSSNAMGWYGQAPGKERELVAAISSSGAGTYYADSVKGRFTISRDNAKNTVYLQMNRLKPEDTAVYYCAARANSYHSFTSHYDYWGQGTQVTLSS | low polyreactivity |
| QVHLVESGGGLVQAGGSLRLSCADSGRIFYQYAMGWYRQQPGKESELVARITSGGGTNYADSVKGRFSISRDNAKYTVYLQMNSLKPEDTAVYYCAAGPWYYSYPDYYWGQGTQVTVSS | high polyreactivity |
| QVHLVESGGGLVQAGGSLRLSCADYGRTFSRYAMGWYRQAPGKERELVATINSRAGITNYPDTVKGRFTISRDNAKNTVYLQMTSLKPEDTAVYYCNRGRPGGPSWYHFDYWGQGSQVTVSS | high polyreactivity |
| QVHLVESGGGLVQAGGSLRLSCASSGGTFPPNTMGWYRQAPGKEREFVAAITWRGSSTYYADSVKGRFTISRDNAKITFFLQMNSLKPEDSAVDYCAARRAYERMGFWGQGTQVTVSS | high polyreactivity |
| QVHLVESGGGLVQAGGSLRLSCDASGSTFLSNAMGWYRQAPGKERELVAAITTSGTSTFYADSVKGRFTISRDTAKNTVYLQMNSLKPEDTAVYCAKDYLPYLHFVAPSTGDYDYWGQGTQVTVSS | low polyreactivity |
| QVHLVESGGGLVQAGGSLRLSCDATGFTFQEYAMGWYRQAPGKERELVAAISTSGDSTYYADSVKGRFTISRDNAKNTVYLQMKSLKPEDNAVYYCATAYEDLDAGVLYDYWGQGTQVTVSS | low polyreactivity |
| QVHLVESGGGLVQAGGSLRLSCHASGSNFYSYGLGSYRQAPGKERELVAAITSSGGGTYYADSVKGGFTISRDNAKNTVYLQMHSLKPEDTAVYYCNADHFSDNSSTQYDYWGQGTQVTVSS | low polyreactivity |
| QVHLVESGGGLVQAGGSLRLSCPASGRIFDWYAMGCYRQAPGKEREFVAVIDSSGGTYYADSVKGRFTISRDNAKNTVYLQMNSLKPEDTAVYYCAAEYGWWSFPEYDYWGQGTQVTVSS | low polyreactivity |
| QVHLVESGGGLVQAGGSLRLSCSASGRTFPKYAMGWYRQAPGKERELVAAINKSGGSRYYADSVKGRFTISRDYAKNTVYLQMNSLKPEDTAVYYCAADWRGWSFFRGDDYWGQGTQVTVSS | high polyreactivity |
| QVHLVESGGGLVQAGGSLRLSCSASGSIFRLNAMGWYRQAPGKERELVAAITWSDSSTYYADSVKGRFTISRDNAKNTVYLQMNSLKPVDTAVYYCAADPQSYKYDYWGQGTQVTVSS | low polyreactivity |
| QVHLVESGGGLVQAGGSLRLSSAASGFIFGKNDMGWYRQAPGKERELVAAITIGGSTNYADSVKGRFTISRDNAKNTVYLQLNSLKPEDTAVYYCAADSSSLYNYWGQGTQVTVSS | low polyreactivity |
| QVHLVESGGGLVQAGGSLRLSSAASGLIFYHYAMGWYRQAPGNERELVAAITKRGGSTYYADSVKGRFTISRDNAKNTVYLQINSLKQEDTAVYYCAADGVRYTQSFEMYWGQGTQVTVSS | high polyreactivity |
| QVHLVESGGGLVQAGGSLRLSSAASGRIFPWNAMGWYRQAPGKERELVAAISFSAGRTYYADSVKGRFTISRDNAKNTVYLQMNSLKPEDTAVYYCNARIGSRGVWTGIIGYEYWGQGTQVTVSS | low polyreactivity |
| QVHLVESGGGLVQAGGSLRLSWAASGRNFTRYAMGWYSQAPGKERELVASIRHSGGSTYYADSVKGRFTISRDNAKKTVYLLINSLKPEDTADFYCAARGKKGTRYKYNYWGQRTQVTVSS | high polyreactivity |
| QVHLVESGGGLVQAGGSLRLTCAASGSIFSYAMGWYRQAPGKESELVAAISSGGGRTYYADSVKGRFTISRDNAKNTVYLQMNRLKPEDTAVYFCAAVGLPQGRYGYWGQGTQVTLSS | high polyreactivity |
| QVHLVESGGGLVQAGGSLRLTCAASGSIFTYNAMGWYRQAPGKEREFVAAISRCGGNTKYADSVKGRFTISRDNAKNTVYFQMNSLKPEDTAVYYCAVRTIAYSGFRYNYWGQGTQVTVSS | high polyreactivity |

| Sequence | polyreactivity (PSR sort gate) |
| --- | --- |
| QVHLVESGGGLVQAGGSLSLSCDASGYIISSYVMGWYRQAPGKERELVAAISRRGGSTYYADSVKGRFTISRDNAKNTVYLQMNSLIPEDTAVYYCAADGLSGYGSGRYYGMGYCGQGTQVTVSS | high polyreactivity |
| QVHLVESGGGLVQAGGSRRLSCAASGFTLSYYAMGWYRQAPGKERELVATISRVGTTYADSVKGRFTISRDNAKNTVYLQMNSLKPEDTAVYYCAVRSRWPYYFTRGVREGDYWGQGTQVTVSS | high polyreactivity |
| QVHLVESGGGLVQAGGTLRLRCAASGSTFVYNDMGWYRQAPGKERELVAAISTSGGSTYYADSVKGRFTISRDNAKNTVYLQMNSLKPEDTAVYFCAVDSYYFGYWAIQWEGDYWGQGTQVTVSS | low polyreactivity |
| QVHLVESGGGLVQAGGTLRLSCAASGRIFHPNEMRWYRQAPGKEWELVAAISWRGTSTYADSVKGRFTISRDNAKNTVYLQMNSLKPEDTAVYYCVRRYTGLPGWSSYGSYESGYWGQGTQVTVSS | high polyreactivity |
| QVHLVESGGGLVQAGRSLRLICAASGSTFPTYAMGWYRQAPGKETELVAAISTRGGSTYYADSVKGRFTISRDNAKNTVYLQMNSVKPEDTAVYYCATGKTVGRYHYEYWGQGTQVTVSS | low polyreactivity |
| QVHLVESGGGLVQAGVSLRLSCAASGLTFGPYAMGWYRQAPGKERELVAAITSGGNTNYADSVKGRFTISRDNAKNTVYLQMNSLKPEDTAVYYCATSYYLAYRSITPYDYWGQGTQVTVSS | low polyreactivity |
| QVHLVESGGGLVQAGVSLRLSCAAYVRIFGRNAMGWYRQAPGKEREFVAAITYSGTSTYYADSVKGRFTISRDNAKNTVYLQMNSLKREDTAVYYCNAQYLPSHVYGRYSSTFNYWGQGTQLTVSS | low polyreactivity |
| QVHLVESGGGLVQAVSSLRLSCAASGSTFRAYAMGWYRQEPGKDRELVARITFSGGSTYYADSVKGRFTISRDNAKNTVYLQMNSLKPEDTAVYYCNARRTYLDRYNYWGQGTQVTVSS | high polyreactivity |
| QVHLVESGGGVVQAGGSLRLSCAASGRIFPSYDRGWYRQAPGKERELVATISSRGDSTYYADSVKGRFTISRDNAKNTVYLQMNSLKPEDTAVYYCAAERPFWEYDYWGQGTQVTVSS | low polyreactivity |
| QVHLVESGGRLVQAGGSLRLSCAASGGTFYQYTMGWYRQAPGKERELVAAITRSGGSTRYADTVKGRFTISRDNAKNTVYLQMNSLKPEDTAVFYCAARSGYPSFEYWGPGTQVTVSS | high polyreactivity |
| QVHLVESGGVLVQAGGSLRLSCAASGSIFAKYAMGWYRQAPGKERELVAAISRSSVRTRYADSVKGRFTISRDNAKNTVYLQMNSLKPADTAVYYCNAYYRSYAYSHLDYWGQGTQVTVSS | high polyreactivity |
| QVHLVESGGVLVQAGGSLRLSCAASGSPFTKYAMGWYRQAPGKERELVAAFTGGGGSTYYADSVKGRFTISRDNAKNTVYLQLNSLKPEDSAVYYCAAKVALSRFRQWSYDYWGQGTQVTVSS | low polyreactivity |
| QVHLVESGRGLVQAGGSLRLSCAASGSTFGWNTMGWYRQAPAKERELVAAISWSGDRTYYADSVKGRFTISRDNAKNTVYLQMNRLKPEDTAVYYCARQRYYGYYYWGQGTQVTVSS | high polyreactivity |
| QVHLVESGVGLGQAGGSLRLSCAASGSIFYSNAMGWYRPAPGKERELVATITWSGGRTYYADSVKGRFTISRDYAKNTFYLQMHSLKPEDTAVYYCAAVSIYWGHGTQVTVSS | low polyreactivity |
| QVHLVESGVGLVQAGGSLRLSCAASGRIFFANPIGWYRQAPGKERELVAANSRGGRTNYADSVKGRFTISRDNAKNTVYLQMNSLNPEDTAVYYCAAVRLSHAPSYYLYGMDYWGQGTQVTVSS | low polyreactivity |
| QVHLVESGVGLVQAGGSLRLSCAAYGYTFTRNAKGWSRQAPGKERELVAAISKRGGTTYYADSVKGRFTISRDNEKYSVYLQMNSLKPEDTAVYYCAKDGGITGGYWGQGTQVTVSS | high polyreactivity |
| QVHLVESGVGLVQAGGSLRLSCASSGRIFYDNSMGWYRQAPGKERELVAAISYRGGSTYYADSVKGRFTISRDNAKNTVYLLMNSLKPEDTAVYYCARAGFTTCPDHDSWGQGTQVTVSS | high polyreactivity |
| QVHLVESGVGLVQAGVSHRLSCAASGSTYRGYAMGWYRQAPGKERELVAPITYISDSTYYADSVKGRFTISRDNAKNTVYLQMNSLKPEDSAVYYCNDYYDGDWRYTSQETGDNWGQGTQVTVSS | low polyreactivity |
| QVHLVESVGGLLQAGGSLPLSCPASGSTFYDYAMGWYRPAPGKERELVASITTGGDSTYYADSVKGRFTISRDNAKNSVYLQMKSLIPEDSAVYYFNADWYYWFSNYQGAPEMDYWGQGTQVSVSS | high polyreactivity |
| QVHLVESVGGLVQAGGSLRLSCAASGRIFGYYAMGWYRQAPGKERELVAAISTNGGTTYYADSVKGRFTISRDNAKNTVYLQMNSLKPEDTAVYYCAATYTVPGHARYDYWGQGTQVTVSS | low polyreactivity |
| QVHLVESVGGLVQAGGSLRLSCTASGSTCVAYDMGWYRQAPGQERDLVAAITSSGGRTYYADSVKGRFKFSLDNAMNTVYLQMNSLKPEDTAVYYCAAVTHGRYDWGQGPQVTVSS | high polyreactivity |
